Laboratory results taken from patent US9416162B2, “Peptides having reduced toxicity that stimulate cholesterol efflux” (The Regents of the University of California, priority 2013, dated 2016).

System: New Zealand White rabbits
Test: High-dose IV bolus toxicity of ATI-5261 in rabbits (plasma ALT, AST, TG, unesterified cholesterol)
Assay type: in vivo, rabbit
Details: male New Zealand White rabbits, single IV bolus 3, 30 or 300 mg/kg
Description: Peptides or peptidomimetics of the invention can be evaluated for toxicity using known assays. Examples of such assays are illustrated in the Examples section. Toxicity is typically assayed in a rat, rabbit, mouse, monkey or dog model. […] Safety chemistry panels including plasma alanine aminotransferase (ALT), aspartate amino transferase (AST), and creatine kinase (CK) can then be determined in the blood. The presence of elevated levels of these enzymes in the blood compared to control normal values is indicative of toxicity. A peptide of the invention is typically considered to be non-toxic or to have little toxicity, when the results using the highest dose, 300 mg/kg in this illustrative assay, are equivalent (fall within the standard deviation) of the values measured for the control animals that received vehicle alone, or are no more than 2 or 3 times background obtained with vehicle alone. […]
Cytotoxicity of an HDL mimetic peptide ATI-5261 at high doses was evaluated in rats and rabbits (FIG. 1). […]
For the experiments in FIG. 2, male chow-fed Wistar rats (Panels A and B) were administered ATI-5261 at doses of 3, 30, and 300 mg/kg as described in FIG. 1. Plasma triglyceride (TG, Panel A) and unesterified cholesterol (Panel B) concentrations were determined enzymatically at the times indicated. […]

## ATI-5261: HDL mimetic peptide, parent peptide; triglyceride elevating and muscle toxic peptide used as positive control (EVRSKLEEWFAAFREFAEEFLARLKS) [reference compound]
  cytotoxic response (plasma ALT and AST): induced a cytotoxic response
  plasma triglycerides and cholesterol: increased plasma triglycerides and cholesterol
